# Measurements published in patent publication US20240301056A1 (APITBIO, published 2024).
# Changes are numbered by the printed parent chain.
# B1: Ab4H5 antibody (antibody, human IgG1, kappa, V domains shown)
# VH: EVQLVESGGGVVQPGGSLRLSCAASGFTFSRFGMHWVRQAPGKGLEWVAFISNEGSNKYYADSVKGRFTISRDNSANTLYLQMNSLRAEDTAVYYCARGRAYGSGSLFDPWGQGTLVTVSS
# VL: DIQLTQSPSSLSASVGDRVTITCRASRTISSYVNWYRQRPGKAPESLIYAASNLHSGVPSRFSGSGSGTDFTLTISSLQPEDFATYYCQQAGFYTPWTFGQGTKLEIKR
# notes: Whole human IgG1, kappa; also called Anti-L1CAM ("Ab4H5"); Ab4H5 mutant
# B2: Ab2C2 antibody (antibody, human IgG1, kappa, V domains shown)
# VH: B1 VH
# VL: B1 VL with T95S
# notes: Whole human IgG1, kappa; also called Anti-L1CAM ("Ab2C2"); Ab2C2 mutant
# B3: Ab4H6 antibody (antibody, human IgG1, kappa, V domains shown)
# VH: B1 VH
# VL: B1 VL with A91S, G92L, F93H, Y94F, T95Y
# notes: Whole human IgG1, kappa; also called Anti-L1CAM ("Ab4H6"); Ab4H6 mutant
# B4: Ab5D12 antibody (antibody, human IgG1, kappa, V domains shown)
# VH: B1 VH
# VL: B1 VL with A91S, G92L, F93V, Y94W, T95Y
# notes: Whole human IgG1, kappa; also called Anti-L1CAM ("Ab5D12"); Ab5D12 mutant
# B5: Ab612 antibody (antibody, human IgG1, kappa, V domains shown)
# VH: B1 VH
# VL: B1 VL with A91S, G92I, F93G, Y94R, T95G, W97V
# notes: Whole human IgG1, kappa, purified on protein A; also called Anti-L1CAM ("Ab612")
# Legend:
# [1] = target: Human L1CAM (purified protein) (human) (UniProt P32004); test: BLI, Octet RED384; antibody captured on AHC sensor, human L1CAM 50-0.78 nM as analyte
# [2] = target: T1, Mouse L1CAM on B16F1 cells (mouse, UniProt P11627 20-1260); test: flow cytometry on B16F1 cells, antibody 10 ug/ml, FITC anti-human IgG Fc secondary
# T1 construct: whole, on cells; also called mouse L1CAM-positive cells
# T1 sequence (P11627 20-1260): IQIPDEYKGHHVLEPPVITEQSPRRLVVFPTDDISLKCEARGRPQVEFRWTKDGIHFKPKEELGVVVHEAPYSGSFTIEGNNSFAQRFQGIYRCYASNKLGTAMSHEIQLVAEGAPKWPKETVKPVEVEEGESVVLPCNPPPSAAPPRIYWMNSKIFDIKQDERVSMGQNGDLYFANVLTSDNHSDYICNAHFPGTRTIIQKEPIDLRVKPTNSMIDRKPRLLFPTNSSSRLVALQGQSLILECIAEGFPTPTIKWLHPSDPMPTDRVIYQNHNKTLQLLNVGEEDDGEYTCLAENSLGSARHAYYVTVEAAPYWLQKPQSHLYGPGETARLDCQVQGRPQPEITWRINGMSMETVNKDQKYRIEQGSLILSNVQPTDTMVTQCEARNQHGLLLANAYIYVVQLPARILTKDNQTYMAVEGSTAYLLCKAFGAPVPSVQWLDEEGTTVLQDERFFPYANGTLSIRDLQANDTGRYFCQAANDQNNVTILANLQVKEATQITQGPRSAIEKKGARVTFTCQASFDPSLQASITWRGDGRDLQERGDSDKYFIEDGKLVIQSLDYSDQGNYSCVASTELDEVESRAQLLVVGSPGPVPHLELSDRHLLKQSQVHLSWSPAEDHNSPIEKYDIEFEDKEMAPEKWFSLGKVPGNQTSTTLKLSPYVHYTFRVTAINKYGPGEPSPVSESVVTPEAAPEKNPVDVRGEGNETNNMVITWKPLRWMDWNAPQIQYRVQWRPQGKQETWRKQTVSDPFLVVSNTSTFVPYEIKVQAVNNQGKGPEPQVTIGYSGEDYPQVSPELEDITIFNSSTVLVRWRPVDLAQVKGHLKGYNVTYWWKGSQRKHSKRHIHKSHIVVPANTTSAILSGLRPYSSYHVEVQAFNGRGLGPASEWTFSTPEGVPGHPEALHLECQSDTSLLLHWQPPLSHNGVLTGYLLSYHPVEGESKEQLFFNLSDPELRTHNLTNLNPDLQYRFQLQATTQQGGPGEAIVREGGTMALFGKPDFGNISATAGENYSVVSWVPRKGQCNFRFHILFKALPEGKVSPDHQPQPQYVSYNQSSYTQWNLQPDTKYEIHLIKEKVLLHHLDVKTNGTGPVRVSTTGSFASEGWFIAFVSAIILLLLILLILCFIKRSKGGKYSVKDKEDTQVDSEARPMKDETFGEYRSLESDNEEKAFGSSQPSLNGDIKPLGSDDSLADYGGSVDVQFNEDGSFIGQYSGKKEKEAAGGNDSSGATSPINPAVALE
# Method: In order to examine whether the variant antibodies selectively bind to human and mouse L1CAM, flow cytometry was performed using various types of cells. In this regard, as a comparative antibody, the Ab417 antibody which binds to human L1 CAM and mouse L1 CAM was used.
# CHO-DG44 (ATCC No. PTA-3356) cells that are known to express no human L1CAM were cultured and used as a negative control. Also, cells expressing human L1CAM, human ovarian carcinoma, SKOV3 (ATCC No. HTB-77) and human non-small cell lung carcinoma, NCI-H522 (AYCC NO. CRL-5810) were cultured. As cells expressing mouse L1CAM, a melanoma cell line, B16F1 (ATCC No. CRL-6323) was cultured. The cultured cells were harvested using a dissociation buffer or 0.05% trypsin (GIBCO) for CHO-DG44 cell, resuspended in 1% PBA solution, and placed on ice for 20 minutes. The cells were then added to round bottom polystyrene test tube (Falcon) at a density of 4×10⁵ cells per tube. The purified antibodies were diluted in PBA solution at a concentration of 10 ug/ml, and 100 μl was added to each tube and mixed well. The tubes were placed in 4° C. for 1 hour. The secondary antibody which specifically binds to the Fc region of human IgG and is covalently linked with FITC (Sigma) was added to each tube at a ratio of 1:2000. The plate was wrapped with foil to block light and allowed to react at 4° C. for 1 hour. A staining reagent PI (propidium iodide, Sigma) was added at a ratio of 1:200 to evaluate cell viability. After all reactions were completed, FITC and PI fluorescent signals were detected in the cells.
# [3] = target: Human L1CAM (purified protein) (human) (UniProt P32004); test: competitive ELISA; antibody pre-incubated with soluble human L1CAM, free antibody detected on coated human L1CAM
# [4] = target: Human L1CAM (purified protein) (human) (UniProt P32004); test: BLI (Octet RED384), antibody captured on AHC sensor, human L1CAM in solution; upper end told of the variants as a group, tied to Ab4H5 by the KD values of the same paragraph (0.2 nM against 8 pM)
# [5] = target: Human L1CAM (purified protein) (human) (UniProt P32004); test: competitive ELISA; upper end of the range, tied to Ab2C2 by Table 9
# [6] = target: Human L1CAM (purified protein) (human) (UniProt P32004); test: competitive ELISA; lower end of the range, tied to Ab612 by Table 9
Binder,Kd [1] [nM],koff [1] [s⁻¹],kon [1] [M⁻¹ s⁻¹],binding result [2],Affinity (K) [3] [pM],fold increased affinity compared to Ab417 [4] [fold],fold higher binding affinity than Ab417 [5] [fold],fold higher binding affinity than Ab417 [6] [fold]
B1,0.00822,2.98e-06,363000,binds,60,25,–,–
B2,< 0.001,< 1e-07,344000,binds,50,–,2 to 10,–
B3,0.0741,2.77e-05,373000,binds,60,–,–,–
B4,0.096,3.94e-05,411000,binds,120,–,–,–
B5,0.105,3.28e-05,313000,binds,260,–,–,2 to 10
